Paper PMC5834258, “Selective targeting of collagen IV in the cancer cell microenvironment reduces tumor burden” (Oncotarget, 2018)

How the values were obtained:
[1] = biological target: T1, Goodpasture antigen-binding protein (GPBP) (Homo sapiens, UniProt Q9Y5P4); experiment: […] in vitro autophosphorylation of purified multimeric GPBP at […] T12; FPLC-SEC shift of GPBP oligomers (BSA control unaffected); type: biochemical
T1 construct: gene CERT1; FLAG-tagged recombinant GPBP multimer (77-kDa GPBP isoform); also native extracellular A427 GPBP
T1 sequence (Q9Y5P4 1-624): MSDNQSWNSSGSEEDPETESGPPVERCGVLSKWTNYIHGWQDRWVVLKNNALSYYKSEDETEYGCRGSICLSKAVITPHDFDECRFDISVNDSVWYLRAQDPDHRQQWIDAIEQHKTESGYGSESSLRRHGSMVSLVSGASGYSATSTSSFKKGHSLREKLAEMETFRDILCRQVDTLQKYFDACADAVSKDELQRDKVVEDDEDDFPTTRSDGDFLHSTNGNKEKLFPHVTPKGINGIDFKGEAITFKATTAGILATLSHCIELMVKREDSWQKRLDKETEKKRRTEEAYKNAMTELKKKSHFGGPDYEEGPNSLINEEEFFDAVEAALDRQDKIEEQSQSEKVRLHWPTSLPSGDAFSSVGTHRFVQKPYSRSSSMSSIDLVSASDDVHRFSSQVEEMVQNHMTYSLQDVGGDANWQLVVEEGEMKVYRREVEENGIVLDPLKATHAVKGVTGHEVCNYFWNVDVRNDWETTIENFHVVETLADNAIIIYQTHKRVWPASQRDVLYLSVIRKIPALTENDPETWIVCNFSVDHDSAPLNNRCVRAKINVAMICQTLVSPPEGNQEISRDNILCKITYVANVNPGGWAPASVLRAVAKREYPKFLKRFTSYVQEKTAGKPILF

GPBP (FLAG-GPBP) = biological target: T2, GPBP (FLAG-GPBP) (Homo sapiens, UniProt Q9Y5P4); experiment: […] in vitro autophosphorylation of FLAG-GPBP (Figure 9G); type: biochemical
T2 construct: gene CERT1; FLAG-GPBP
T2 sequence (Q9Y5P4 1-624): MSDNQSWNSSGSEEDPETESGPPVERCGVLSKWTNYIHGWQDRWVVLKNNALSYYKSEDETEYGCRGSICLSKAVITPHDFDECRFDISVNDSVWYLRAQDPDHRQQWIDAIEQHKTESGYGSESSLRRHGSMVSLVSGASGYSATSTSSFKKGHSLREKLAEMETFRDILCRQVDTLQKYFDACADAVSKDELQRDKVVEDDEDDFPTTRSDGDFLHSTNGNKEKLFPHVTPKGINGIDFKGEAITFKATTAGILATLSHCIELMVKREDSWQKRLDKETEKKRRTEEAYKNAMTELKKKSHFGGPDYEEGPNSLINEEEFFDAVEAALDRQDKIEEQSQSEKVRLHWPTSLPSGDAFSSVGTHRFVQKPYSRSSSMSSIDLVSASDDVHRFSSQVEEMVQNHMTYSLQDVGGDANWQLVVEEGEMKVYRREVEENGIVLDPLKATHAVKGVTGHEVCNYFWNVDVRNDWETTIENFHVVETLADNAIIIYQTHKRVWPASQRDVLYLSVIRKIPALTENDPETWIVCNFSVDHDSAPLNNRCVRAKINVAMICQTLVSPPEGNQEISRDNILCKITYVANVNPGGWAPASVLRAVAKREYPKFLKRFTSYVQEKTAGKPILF

[2] = biological target: the molecule itself; experiment: SEC; FPLC-SEC on Superdex 200 of FLAG-GPBP purified from Sf9 culture media; calibrators thyroglobulin, aldolase, human serum albumin
[3] = biological target: the molecule itself; experiment: SEC; GPBP affinity-purified from culture media of A427 and A549 cells (scFvN26 column, native elution with peptide PS132), FPLC-SEC on Superdex 200, fractions read by indirect ELISA with anti-GPBP mAb
[4] = biological target: the molecule itself; experiment: SEC; HPLC-SEC on TSKgel G4000SW of purified yeast recombinant FLAG-tagged polypeptides

**Q.** How did the “32P in vitro autophosphorylation of purified multimeric GPBP at 50 μM T12; FPLC-” value [1] turn out when `COc1ccc(-c2ccc(-c3cccc(C)c3)c(C)c2)c(CCC(=O)O)c1` [T12, 3-[4″-methoxy-3,2′-dimethyl-(1,1′;4′,1″)terphenyl-2″-yl]propionic acid] was run?
**A.** T12 reduced autophosphorylation of recombinant multimer but did not affect the recombinant GPBP trimer autophosphorylation activity

**Q.** `COc1cccc2c1C(=O)c1c(O)c3c(c(O)c1C2=O)C[C@@](O)(C(=O)CO)C[C@@H]3O[C@H]1C[C@H](N)[C@H](O)[C@H](C)O1` [doxorubicin] was tested. Which “32P in vitro autophosphorylation of FLAG-GPBP (Figure 9G)” value (GPBP (FLAG-GPBP)) did it give?
**A.** it was shown the existence of GPBP species sensitive to doxorubicin (Figure 9G)

B1: FLAG-tagged GPBP (Goodpasture antigen-binding protein), extracellular pool from Sf9 cells (natural protein, human, UniProt Q9Y5P4 1-624, looked up)
chain: MSDNQSWNSSGSEEDPETESGPPVERCGVLSKWTNYIHGWQDRWVVLKNNALSYYKSEDETEYGCRGSICLSKAVITPHDFDECRFDISVNDSVWYLRAQDPDHRQQWIDAIEQHKTESGYGSESSLRRHGSMVSLVSGASGYSATSTSSFKKGHSLREKLAEMETFRDILCRQVDTLQKYFDACADAVSKDELQRDKVVEDDEDDFPTTRSDGDFLHSTNGNKEKLFPHVTPKGINGIDFKGEAITFKATTAGILATLSHCIELMVKREDSWQKRLDKETEKKRRTEEAYKNAMTELKKKSHFGGPDYEEGPNSLINEEEFFDAVEAALDRQDKIEEQSQSEKVRLHWPTSLPSGDAFSSVGTHRFVQKPYSRSSSMSSIDLVSASDDVHRFSSQVEEMVQNHMTYSLQDVGGDANWQLVVEEGEMKVYRREVEENGIVLDPLKATHAVKGVTGHEVCNYFWNVDVRNDWETTIENFHVVETLADNAIIIYQTHKRVWPASQRDVLYLSVIRKIPALTENDPETWIVCNFSVDHDSAPLNNRCVRAKINVAMICQTLVSPPEGNQEISRDNILCKITYVANVNPGGWAPASVLRAVAKREYPKFLKRFTSYVQEKTAGKPILF
notes: Constructs may be described in the extended methods (Supplementary Materials); also called FLAG-GPBP; extracellular GPBP
**Q.** Does B1 bind [2]?
**A.** binds

B2: native extracellular GPBP isolated from the culture media of human NSCLC cells (A427, A549) (natural protein, human (endogenous in A427 and A549), UniProt Q9Y5P4 1-624, looked up)
chain: MSDNQSWNSSGSEEDPETESGPPVERCGVLSKWTNYIHGWQDRWVVLKNNALSYYKSEDETEYGCRGSICLSKAVITPHDFDECRFDISVNDSVWYLRAQDPDHRQQWIDAIEQHKTESGYGSESSLRRHGSMVSLVSGASGYSATSTSSFKKGHSLREKLAEMETFRDILCRQVDTLQKYFDACADAVSKDELQRDKVVEDDEDDFPTTRSDGDFLHSTNGNKEKLFPHVTPKGINGIDFKGEAITFKATTAGILATLSHCIELMVKREDSWQKRLDKETEKKRRTEEAYKNAMTELKKKSHFGGPDYEEGPNSLINEEEFFDAVEAALDRQDKIEEQSQSEKVRLHWPTSLPSGDAFSSVGTHRFVQKPYSRSSSMSSIDLVSASDDVHRFSSQVEEMVQNHMTYSLQDVGGDANWQLVVEEGEMKVYRREVEENGIVLDPLKATHAVKGVTGHEVCNYFWNVDVRNDWETTIENFHVVETLADNAIIIYQTHKRVWPASQRDVLYLSVIRKIPALTENDPETWIVCNFSVDHDSAPLNNRCVRAKINVAMICQTLVSPPEGNQEISRDNILCKITYVANVNPGGWAPASVLRAVAKREYPKFLKRFTSYVQEKTAGKPILF
notes: also called native extracellular A427 GPBP; mesenchymal GPBP
**Q.** Does B2 bind [3]?
**A.** binds

B3: yeast recombinant FLAG-tagged GPBP (natural protein, human, UniProt Q9Y5P4 1-624, looked up)
chain: MSDNQSWNSSGSEEDPETESGPPVERCGVLSKWTNYIHGWQDRWVVLKNNALSYYKSEDETEYGCRGSICLSKAVITPHDFDECRFDISVNDSVWYLRAQDPDHRQQWIDAIEQHKTESGYGSESSLRRHGSMVSLVSGASGYSATSTSSFKKGHSLREKLAEMETFRDILCRQVDTLQKYFDACADAVSKDELQRDKVVEDDEDDFPTTRSDGDFLHSTNGNKEKLFPHVTPKGINGIDFKGEAITFKATTAGILATLSHCIELMVKREDSWQKRLDKETEKKRRTEEAYKNAMTELKKKSHFGGPDYEEGPNSLINEEEFFDAVEAALDRQDKIEEQSQSEKVRLHWPTSLPSGDAFSSVGTHRFVQKPYSRSSSMSSIDLVSASDDVHRFSSQVEEMVQNHMTYSLQDVGGDANWQLVVEEGEMKVYRREVEENGIVLDPLKATHAVKGVTGHEVCNYFWNVDVRNDWETTIENFHVVETLADNAIIIYQTHKRVWPASQRDVLYLSVIRKIPALTENDPETWIVCNFSVDHDSAPLNNRCVRAKINVAMICQTLVSPPEGNQEISRDNILCKITYVANVNPGGWAPASVLRAVAKREYPKFLKRFTSYVQEKTAGKPILF
notes: also called FLAG-GPBP
**Q.** Does B3 bind [4]?
**A.** binds

B4: yeast recombinant FLAG-tagged GPBP-Ala264 (natural protein, human, UniProt Q9Y5P4 1-624, looked up)
chain: MSDNQSWNSSGSEEDPETESGPPVERCGVLSKWTNYIHGWQDRWVVLKNNALSYYKSEDETEYGCRGSICLSKAVITPHDFDECRFDISVNDSVWYLRAQDPDHRQQWIDAIEQHKTESGYGSESSLRRHGSMVSLVSGASGYSATSTSSFKKGHSLREKLAEMETFRDILCRQVDTLQKYFDACADAVSKDELQRDKVVEDDEDDFPTTRSDGDFLHSTNGNKEKLFPHVTPKGINGIDFKGEAITFKATTAGILATLSHCIALMVKREDSWQKRLDKETEKKRRTEEAYKNAMTELKKKSHFGGPDYEEGPNSLINEEEFFDAVEAALDRQDKIEEQSQSEKVRLHWPTSLPSGDAFSSVGTHRFVQKPYSRSSSMSSIDLVSASDDVHRFSSQVEEMVQNHMTYSLQDVGGDANWQLVVEEGEMKVYRREVEENGIVLDPLKATHAVKGVTGHEVCNYFWNVDVRNDWETTIENFHVVETLADNAIIIYQTHKRVWPASQRDVLYLSVIRKIPALTENDPETWIVCNFSVDHDSAPLNNRCVRAKINVAMICQTLVSPPEGNQEISRDNILCKITYVANVNPGGWAPASVLRAVAKREYPKFLKRFTSYVQEKTAGKPILF
notes: Mainly trimeric by SEC, with traces of higher and lower MW materials; source: yeast, purified
**Q.** With B4 as the molecule, how does the “stoichiometry N” value [4] read?
**A.** 3
